Columns and labels:
human insulin receptor [1] = target: T1, human insulin receptor (human, UniProt P06213 28-1382); test: cell-based or functional assay
human insulin receptor [2] = target: T1, human insulin receptor; test: cell-based or functional assay; remark: listed apart in the source
[3] = target: T2, human insulin receptor complexed with human insulin (human, UniProt P06213 28-1382; P01308 25-54; P01308 90-110); test: KinExA antibody depletion by hINSR8-CHOK1 cells, with 175 nM insulin
T2 construct: whole, on cells;mature; also called hINSR-hINS complex; INS/INSR complex
Protocol: (§1) Beads were rotated at room temperature for 6 hours then allowed to settle. Supernatant was replaced with PBS with 50 mg/mL BSA Fraction V (Sigma-Aldrich, St. Louis, Mo.) and rotated overnight at 4° C. […] On the KinExA 3000 the sample was injected at 0.25 mL/minute for 240 seconds, then rinsed for 60 seconds in running buffer (PBS with 0.05% sodium azide), then 240 seconds of the detection solution was injected, followed by a final 90 second wash at 1 mL/minute. The difference in voltage from an early initial time-point and a time point near the end of the run was measured and used to calculate affinities. The INSR concentration on the cells was estimated at 2.5×10⁵ receptors/cell. Affinity was determined using the KinExA software (Sāpidyne, Boise Id.) and EC50's were calculated by non-linear fit in Prism (GraphPad Software, La Jolla Calif.).
(§2) Samples were incubated overnight at 4° C. for 18 hours then centrifuged to pellet cells and supernatants were removed for testing on the KinExA. […] Detection solution used was R-PE-(Fab′)2 fragment goat anti-Human IgG(H+L) (Jackson Immuno Research, West Grove Pa.).

human insulin receptor [4] = target: T1, human insulin receptor; test: FACS, serum-starved CHO-K1 cells expressing human INSR, no insulin [cont'd]
Protocol: (§3) Twenty five microliter aliquots of cells were plated into 96 well plates, mixed with 25 ul of antibody or PPE and incubated on ice for 1 h.
(§4) The cells were then washed once with FACS buffer and the binding of the antibody was detected by the addition of 25 ul of an appropriate fluorochrome-conjugated secondary antibody. […] After a final 15 min incubation on ice the cells were washed and the pellets resuspended in FACS buffer. The cells were analyzed on a FACSCAN™ (Becton-Dickinson, Milipitas, Calif.) and the data analyzed in both FLOWJO™ (Treestar, Ashland, Oreg.) and Microsoft Excel™.

[5] = target: T2, human insulin receptor complexed with …; test: FACS, serum-starved CHO-K1 cells expressing human INSR, with insulin [cont'd]
Protocol: as §3, §4

[6] = target: T3, mouse insulin receptor complexed with human insulin (mouse; human, UniProt P15208 28-1372; P01308 25-54; P01308 90-110); test: FACS, serum-starved CHO-K1 cells expressing mouse INSR, with insulin [cont'd]
T3 construct: whole, on cells;mature; also called muINSR/hINS complex
Protocol: as §3, §4

[7] = target: T2, human insulin receptor complexed with …; test: FACS, CHO-K1 human INSR cells, signal with insulin divided by signal without insulin [cont'd]
Protocol: as §3, §4

[8] = target: T3, mouse insulin receptor complexed with …; test: FACS, CHO-K1 mouse INSR cells, signal with insulin divided by signal without insulin [cont'd]
rabbit insulin receptor [9] = target: T4, rabbit insulin receptor (rabbit, UniProt A0A5F9DAH8 25-1377); test: FACS on monocytes of rabbit PBMC and on CHO cells expressing rabbit insulin receptor, without insulin
T4 construct: whole, on cells

human insulin receptor [10] = target: T1, human insulin receptor; test: cell-based or functional assay; remark: listed apart in the source
mouse insulin receptor [11] = target: T5, mouse insulin receptor (mouse, UniProt P15208 28-1372); test: cell-based or functional assay
mouse insulin receptor [12] = target: T5, mouse insulin receptor; test: cell-based or functional assay; remark: listed apart in the source
[13] = target: T2, human insulin receptor complexed with …; test: KinExA, affinity with insulin against affinity without insulin
Protocol: as §1, §2

human insulin receptor [14] = target: T1, human insulin receptor; test: KinExA antibody depletion by hINSR8-CHOK1 cells, without insulin
Protocol: as §1, §2

rabbit insulin receptor [15] = target: T4, rabbit insulin receptor; test: FACS on monocytes of rabbit PBMC, without insulin
Description: Cynomolgus monkey whole blood was obtained from California National Primate Research Center (Davis, Calif.) and rabbit whole blood was obtained from LifeSource Biomedical, LLC (Moffett Field, Calif.). Human PBMC were purified using Ficoll Hypaque from buffy coats obtained from the American Red Cross. Cynomolgus and Rabbit PBMC were than purified using Ficoll Hypaque gradients (Pharmacia). Purified PBMC were frozen and stored in liquid nitrogen prior to use in the assay. Human, cynomolgus and rabbit PBMC were thawed and washed with FACS Buffer (0.5% BSA and 0.1% NaN3 in PBS). Once the cells were prepared, they were used in the FACS staining assay at a final concentration of 2×10⁶ cells/ml.
After washing twice with FACS buffer, cells were stained with various markers to capture monocytes population. Human and cynomolgus cells were stained with CD45 and CD14. Rabbit cells were stained with CD11b and CD14. Antibodies were than incubated for 20 minutes and washed twice with FACS Buffer. Cells were than fixed with 2% paraformaldehyde and equal volume of FACS Buffer was added prior to cell analysis. The cells were analyzed on a FACScan™ (Becton-Dickinson, Franklin Lakes, N.J.) and the data was analyzed using both FloJo™ (Tristar, Paso Robles, Calif.) and GraphPad Prism 5 (GraphPad Software, La Jolla, Calif.).

mouse insulin receptor [16] = target: T5, mouse insulin receptor; test: FACS, serum-starved CHO-K1 cells expressing mouse INSR, no insulin [cont'd]
Protocol: as §3, §4

Binder | pAKT assay, fold-decrease in insulin EC50 relative to isotype control Ab (human insulin receptor [1]) | fold-change in insulin EC50 (pAkt) relative to isotype control, 20 ug/ml Ab078, human INSR CHO-K1 cells (human insulin receptor [2]) | Kd [3] | FACS area under log transformed data MFI (human insulin receptor [4]) | FACS area under log transformed data MFI [5] | FACS area under log transformed data MFI [6] | FACS area under log transformed data MFI ratio (+insulin/-insulin) [7] | FACS area under log transformed data MFI ratio (+insulin/-insulin) [8] | binding result (rabbit insulin receptor [9]) | positive modulation of insulin-dependent signaling, pAKT assay, CHOK1 human INSR (human insulin receptor [10]) | positive modulation of insulin-dependent signaling, pAKT assay, CHOK1 mouse INSR (mouse insulin receptor [11]) | fold-change in insulin EC50 (pAkt) relative to isotype control, 2 ug/ml Ab001, human INSR CHO-K1 cells (human insulin receptor [2]) | fold-change in insulin EC50 (pAkt) relative to isotype control, 2 ug/ml Ab001, mouse INSR CHO-K1 cells (mouse insulin receptor [12]) | Fold Improvement with Insulin [13] | Kd (human insulin receptor [14]) | fold-change in insulin EC50 (pAkt) relative to isotype control, 10 ug/ml Ab077, human INSR CHO-K1 cells (human insulin receptor [2]) | fold-change in insulin EC50 (pAkt) relative to isotype control, 20 ug/ml Ab077, mouse INSR CHO-K1 cells (mouse insulin receptor [12]) | binding result (rabbit insulin receptor [15]) | FACS area under log transformed data MFI (mouse insulin receptor [16])
Ab078 (antibody, IgG2, V domains shown, also called XPA.015.244) VH: QVQLVQSGGGLVQPGGSLRLSCAASGFTFSSYSMNWVRQAPGKGLEWVSSISSSSSYIYYADSVKGRFTISRDNAKNSLYLQMNSLRAEDTAVYYCARDQGGELLGFTGYFDYWGQGTLVTVSS VL: DIQLTQSPSSLSASVGDRVTITCRASQGISSALAWYQQKPGKAPKVLIYDASSLERGVPSRFSGSGTGTDFTLTISSLQPEDFASYYCHQFNSYPDTFGQGTRLEIK | 3.3 fold | 3 fold | 0.34 nM | 11 | 704 | 217 | 66 | 17.6 | no binding | – | – | – | – | – | – | – | – | – | –
Ab001 (antibody, V domains shown, Positive modulator, Bin 1; also called XPA.015.138) VH: EVQLLESGGGLVQPGGSLRLSCAASGFTFSSYEMNWVRQAPGKGLEWVSSISSSSSYIYYADSVKGRFTISRDNSKNTLYLQMNSLRAEDTAVYYCARVRWYKDSDAFDIWGQGTLVTVSS VL: not shown | 9.7 fold | – | 0.116 nM | – | – | – | – | – | – | ~10 fold | ~10 fold | 12 fold | 7 fold | 103 fold | 12 nM | – | – | – | –
Ab077 (antibody, IgG2, V domains shown, also called XPA.015.243) VH: EVQLVESGGGVVQPGGSLRLSCAASGFTFSSYWMTWVRQAPGKGLEWVANINQDGSEKHYVDSVKGRFTISRDNAKNSLYLQMNSLRGEDTAVYYCARGRGAWAFDYWGQGTLVTVSS VL: DIQMTQSPSSLSASVGDRVTITCRASQGISSWLAWYQQKPGKAPKLLIYAASSLQSGVPSRFSGSGSGTDFTLTISSLQPEDFATYYCQQANSFPITFGQGTRLEIK | – | – | 6.4 nM | 127 | 268 | 103 | 2.12 | 2.28 | – | – | – | – | – | – | – | 9 fold | 8 fold | no binding | 45

Reference: patent US20160009800A1 (XOMA US, published 2016)
